# From PMC3883222
# Read-outs that look alike come from different tables or passages of the source.
# Legend:
# Test in all cases: single-molecule fluorescence in zero-mode waveguides
# [1] = target: Escherichia coli 70S ribosome (Cy3B-30S and BHQ-50S subunits) on biotinylated 6(FK) mRNA (E. coli) (UniProt P0AG67)
# [2] = target: Escherichia coli 70S ribosome (Cy3B-30S and BHQ-50S subunits) on biotinylated 6(FK) mRNA (E. coli) (UniProt P0AG67); remark: listed apart in the source
# [3] = target: Escherichia coli 70S ribosome (Cy3B-30S and BHQ-50S subunits) on biotinylated 6(FK) mRNA (E. coli) (UniProt P0AG67); remark: listed apart in the source
substance,measurement,setting,value
Cy5-labeled single-cysteine elongation factor G (EF-G S73C on a cysteine-free background) (from UniProt P0A6M8 1-704) (enzyme),arrival time against that of EF-G-GDPNP,[1],150 % longer
same,bound-state lifetime,[1],332 ms
same,dwell time,[2],192 ms
same,arrival time against that of EF-G-GDPNP,[3],150 % longer
same,bound-state lifetime,[3],191 ms
same,dwell time,[3],1.64 s
same,dwell time (events with counter-rotation),[3],122 ms
same,dwell time (sampling of the non-rotated state),[3],64.2 ms
same,"dwell time (sampling of the rotated state, no conformational change)",[3],75.8 ms
same,dwell time after the counter-rotation,[3],10 ms
same,dwell time with fusidic acid,[3],8.4 s
same,koff,[3],13.2 s⁻¹
same,mean dwell time with spectinomycin (sampling of the rotated state),[3],351 ms
same,mean dwell time with spectinomycin (successful translocation events),[3],326 ms
same,mean lifetime of the complex,[3],1.62 s
